Article PMC3580866

Key:
[1] = molecular target: human SLBP (hSLBP), Stem-Loop Binding Protein RNA binding domain (RBD/RPD) (UniProt Q14493); experiment: mass spectrometry of oligomer peaks; conditions: reference: bacterially expressed unphosphorylated RBD; sites T171
[2] = molecular target: human SLBP RNA binding domain, phosphorylated at Thr171, baculovirus expressed (human); experiment: electrospray mass spectrometry
[3] = molecular target: human SLBP RNA binding domain, unphosphorylated, bacterially expressed (human); experiment: MALDI-TOF mass spectrometry

In the case of “human SLBP (hSLBP), Stem-Loop Binding Protein RNA binding domain (RBD/RPD) (from UniProt Q14493) baculovirus-expressed phosphorylated RBD”, the “other: percent of mass as dimer” value [1] is reported as “weaker; reference 35.3”.

With “human SLBP RNA binding domain, phosphorylated at Thr171, baculovirus expressed (domain or fragment)” the percent of the mass spectrum as dimer [2] was 5.6%, the percent of the mass spectrum as tetramer [2] was 3.8% and the percent of the mass spectrum as trimer [2] was 3.9%.

For “human SLBP RNA binding domain, unphosphorylated, bacterially expressed (domain or fragment)”, the percent of the mass spectrum as dimer [3] was 35.3%, the percent of the mass spectrum as hexamer [3] was 9.7% and the percent of the mass spectrum as tetramer [3] was 12.4%. The percent of the mass spectrum as trimer [3] was 9.9%.
